Kd and response (bound fraction) data for 1 molecule are collected here from PMC3923297, “Structural basis for microtubule recognition by the human kinetochore Ska complex” (Nature Communications, 2014).

“And” between values parts separate entries of the source, which are not always exact repeats. Equal values may be shown once.

Assay [1] concerns the target T1, microtubules polymerised from tubulin (α1B and β2B tubulin) (UniProt P81947 1-451; Q6B856 1-445).
T1 construct: α-tubulin, printed as α1B tubulin; β-tubulin, printed as β2B tubulin; Polymer of α/β-tubulin dimers; The same tubulin stood as taxol-stabilized (straight) MTs and as vinblastine spirals (curved); the assay tells them apart; brain tubulin is a mix of isotypes; also called MTs; taxol-stabilized MTs; source: bought: Cytoskeleton Inc. (tubulin), polymerised; taxol-stabilized MTs or vinblastine spirals
The experiment in a line: co-sedimentation; MT-pelleting assay: taxol-stabilized MTs or subtilisin-treated MTs (0-12 μM tubulin dimer) with 1 or 3 μM protein, 10 min at room temperature, BRB80 (80 mM PIPES pH 6.9, 1 mM EGTA, 1 mM MgCl2) with 100 mM NaCl, 4 mM DTT, 20 μM taxol; spun through a glycerol cushion, 25 °C; SDS-PAGE, Coomassie, ImageJ. Kd: 1 μM Ska and 0-12 μM MTs; single points: 3 μM Ska (or 1 μM) and 6 μM MTs. The conditions noted are these: both partners purified.

Assay [2] has as its target microtubules polymerised from tubulin (α1B and β2B tubulin), P81947;Q6B856. Put plainly: MT cosedimentation assay. The settings on record: 3 μM Ska and 6 μM vinblastine spirals; parent: est. 0.60; read off a plot.

T1 sequence (P81947 whole entry, chain 1 of 2): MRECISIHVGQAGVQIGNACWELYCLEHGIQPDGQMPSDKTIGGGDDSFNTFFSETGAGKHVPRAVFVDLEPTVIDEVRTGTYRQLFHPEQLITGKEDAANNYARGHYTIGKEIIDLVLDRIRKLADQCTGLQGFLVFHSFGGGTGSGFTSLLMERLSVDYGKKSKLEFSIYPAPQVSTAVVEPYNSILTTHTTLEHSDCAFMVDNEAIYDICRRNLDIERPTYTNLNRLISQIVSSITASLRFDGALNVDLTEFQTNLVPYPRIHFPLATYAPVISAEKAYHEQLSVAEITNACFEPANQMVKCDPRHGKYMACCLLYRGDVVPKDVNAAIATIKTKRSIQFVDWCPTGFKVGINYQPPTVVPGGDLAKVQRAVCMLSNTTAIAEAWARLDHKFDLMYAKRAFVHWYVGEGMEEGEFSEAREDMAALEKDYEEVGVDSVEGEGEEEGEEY
T1 sequence (Q6B856 whole entry, chain 2 of 2): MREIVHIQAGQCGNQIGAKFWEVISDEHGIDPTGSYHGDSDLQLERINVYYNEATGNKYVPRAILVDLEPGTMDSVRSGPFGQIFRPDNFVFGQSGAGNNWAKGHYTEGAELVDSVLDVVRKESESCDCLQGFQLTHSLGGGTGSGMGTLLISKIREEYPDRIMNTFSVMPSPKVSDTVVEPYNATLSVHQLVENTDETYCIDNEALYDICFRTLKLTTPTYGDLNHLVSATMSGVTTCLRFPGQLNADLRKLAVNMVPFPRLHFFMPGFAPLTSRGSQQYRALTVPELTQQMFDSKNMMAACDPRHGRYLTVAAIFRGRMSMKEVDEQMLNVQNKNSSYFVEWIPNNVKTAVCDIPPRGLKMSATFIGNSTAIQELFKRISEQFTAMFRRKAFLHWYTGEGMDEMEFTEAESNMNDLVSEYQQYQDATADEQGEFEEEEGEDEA

B1: human Ska complex (Ska1, Ska2, Ska3), wild type, full length (complex)
chain 1: MASSDLEQLCSHVNEKIGNIKKTLSLRNCGQEPTLKTVLNKIGDEIIVINELLNKLELEIQYQEQTNNSLKELCESLEEDYKDIEHLKENVPSHLPQVTVTQSCVKGSDLDPEEPIKVEEPEPVKKPPKEQRSIKEMPFITCDEFNGVPSYMKSRLTYNQINDVIKEINKAVISKYKILHQPKKSMNSVTRNLYHRFIDEETKDTKGRYFIVEADIKEFTTLKADKKFHVLLNILRHCRRLSEVRGGGLTRYVIT
chain 2: MEAEVDKLELMFQKAESDLDYIQYRLEYEIKTNHPDSASEKNPVTLLKELSVIKSRYQTLYARFKPVAVEQKESKSRICATVKKTMNMIQKLQKQTDLELSPLTKEEKTAAEQFKFHMPDL
chain 3: MDPIRSFCGKLRSLASTLDCETARLQRALDGEESDFEDYPMRILYDLHSEVQTLKDDINILLDKARLENQEGIDFIKATKVLMEKNSMDIMKIREYFQKYGYSPRVKKNSVHEQEAINSDPELSNCENFQKTDVKDDLSDPPVASSCISEKSPRSPQLSDFGLERYIVSQVLPNPPQAVNNYKEEPVIVTPPTKQSLVKVLKTPKCALKMDDFECVTPKLEHFGISEYTMCLNEDYTMGLKNARNNKSEEAIDTESRLNDNVFATPSPIIQQLEKSDAEYTNSPLVPTFCTPGLKIPSTKNSIALVSTNYPLSKTNSSSNDLEVEDRTSLVLNSDTCFENLTDPSSPTISSYENLLRTPTPPEVTKIPEDILQLLSKYNSNLATPIAIKAVPPSKRFLKHGQNIRDVSNKEN
notes: Ska1, human; Ska2, human; Ska3, human, V58I as cloned; Ska3 V58I is printed without explanation; TEV-cleavable tags removed in solution; also called WT Ska complex; FL Ska complex; source: E. coli BL21 Gold, co-expressed, purified (glutathione sepharose, size-exclusion chromatography); copies: 2 + 2 + 2
What is called Kd is the concentration at which binding is half-saturated. For the molecule B1, the affinity in assay [1], expressed as Kd, was 2900 ± 600 nM. Besides, in assay [2], the response (bound fraction) is 0.63 and 0.21 and 0.31.
